According to US20250051467A1 (JIANGSU HENGRUI PHARMACEUTICALS, published 2025):
Where a chain is given by its changes, count along the chain named. Numbers in names are those of the source.

B1: Ab10-A12V2-2 (bispecific antibody, human IgG1, kappa, L234A L235A)
heavy: not shown
light: DIQMTQSPSSVSASVGDRVTITCRASQGISSWLAWYQQKPGKAPKLLIYAASSLQSGVPSRFSGSGSGTDFTLTISSLQPEDFATYYCQQANSFPPAFGQGTKVEIKRTVAAPSVFIFPPSDEQLKSGTASVVCLLNNFYPREAKVQWKVDNALQSGNSQESVTEQDSKDSTYSLSSTLTLSKADYEKHKVYACEVTHQGLSSPVTKSFNRGEC
notes: divalent for CD40
B2: Ab10-A12V2-4 (bispecific antibody, human IgG1, kappa, L234A L235A)
heavy: not shown
light: B1 light
notes: Ab10 IgG1 (L234A/L235A) with two A12V2 VHHs in tandem on each heavy chain C-terminus; tetravalent for CD40
B3: A297V3-Fc (Fc fusion)
chain: EVQLVESGGGLVQPGGSLRLSCAASGFTFSRYGMKWVRQAPGKGLEWVSTINSHGDTTYYADSVKGRFTISRDNAKNSLYLQMNSLRAEDTAVYYCLRIDYSDYSSRGQGTLVTVSSEPKSADKTHTCPPCPAPELLGGPSVFLFPPKPKDTLMISRTPEVTCVVVDVEHEDPEVKFNWYVDGVEVHNAKTKPREEQYNSTYRVVSVLTVLHQDWLNGKEYKCKVSSKAFPAPIEKTISKAKGQPREPQVYTLPPSRDELTKNQVSLTCLVKGFYPSDIAVEWESNGQPENNYKTTPPVLDSDGSFFLYSKLTVDKSRWQQGNVFSCSVMHEALHNHYTQKSLSLSPGK
B4: A12V3-Fc (Fc fusion)
chain: EVQVVESGGGLVQPGGSLRLSCAASGFTFSNYGMKWVRQAPGKGLEWVSTILSQGGSTYYADSVKGRFTISRDNSKNTLYLQMNSLRAEDTAVYYCLRVDWSDYSPRGQGTQVTVSSEPKSADKTHTCPPCPAPELLGGPSVFLFPPKPKDTLMISRTPEVTCVVVDVEHEDPEVKFNWYVDGVEVHNAKTKPREEQYNSTYRVVSVLTVLHQDWLNGKEYKCKVSSKAFPAPIEKTISKAKGQPREPQVYTLPPSRDELTKNQVSLTCLVKGFYPSDIAVEWESNGQPENNYKTTPPVLDSDGSFFLYSKLTVDKSRWQQGNVFSCSVMHEALHNHYTQKSLSLSPGK
B5: A297V1-Fc (Fc fusion)
chain: B3 chain with E1Q, L11V, V93L, L97A, L112M

Assays:
[1] = molecular target: T1, cynomolgus monkey CD40 on HEK293 cells (cynomolgus monkey, UniProt G7PG38 21-278); assay: FACS, HEK293 cells transiently expressing cynomolgus monkey CD40
T1 construct: whole, on cells
Description: (§1) The binding of the bispecific antibodies to cell surface CD40 was measured by FACS, including HEK-Blue™CD40L cells highly expressing human CD40 (Invivogen, Cat #hkb-cd40), and HEK293 cells that were transiently transfected with cynomolgus monkey CD40 plasmids (Sino Biological, cat #CG90970-UT) and thus made to highly express cynomolgus monkey CD40. […] See FIGS. 9A, 9B and 11 and Table 21 for details.

human FAP on CHO cells = molecular target: T2, human FAP on CHO cells (human, UniProt Q12884 1-760); assay: FACS, CHOK1 cells stably expressing human FAP
T2 construct: whole, on cells; also called CHO cell line overexpressing human FAP; CHOK1/FAP
Description: (§2) In this experiment, the binding of the anti-FAP/CD40 bispecific antibodies to stably transfected strains of CHOK1 cells that highly express human FAP, cynomolgus monkey FAP and mouse FAP was measured by FACS.

[2] = molecular target: T3, cynomolgus monkey FAP on CHOK1 cells (cynomolgus monkey); assay: FACS, CHOK1 cells stably expressing cynomolgus monkey FAP
T3 construct: whole, on cells
Description: as §2

[3] = molecular target: T4, human CD40 on cells (Raji cells; HEK-Blue CD40L cells; human dendritic cells) (human, UniProt P25942 21-277); assay: FACS, HEK-Blue CD40L cells expressing human CD40
T4 construct: whole, on cells; One entry for untagged full-length human CD40 on cells; also called Raji cell surface human CD40; human cell surface CD40 antigen
T4 sequence (P25942 21-277): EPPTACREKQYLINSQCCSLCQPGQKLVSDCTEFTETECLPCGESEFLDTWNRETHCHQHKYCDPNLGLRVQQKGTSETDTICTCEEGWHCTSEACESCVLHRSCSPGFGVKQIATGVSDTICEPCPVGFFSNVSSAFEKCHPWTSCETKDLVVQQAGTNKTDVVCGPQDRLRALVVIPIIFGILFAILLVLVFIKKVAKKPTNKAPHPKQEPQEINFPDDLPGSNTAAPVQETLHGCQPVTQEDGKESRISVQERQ
Description: as §1

mouse FAP on CHOK1 cells = molecular target: T5, mouse FAP on CHOK1 cells (mouse, UniProt P97321 1-761); assay: FACS, CHOK1 cells stably expressing mouse FAP
T5 construct: whole, on cells; also called cell surface mouse FAP
T5 sequence (P97321 whole entry): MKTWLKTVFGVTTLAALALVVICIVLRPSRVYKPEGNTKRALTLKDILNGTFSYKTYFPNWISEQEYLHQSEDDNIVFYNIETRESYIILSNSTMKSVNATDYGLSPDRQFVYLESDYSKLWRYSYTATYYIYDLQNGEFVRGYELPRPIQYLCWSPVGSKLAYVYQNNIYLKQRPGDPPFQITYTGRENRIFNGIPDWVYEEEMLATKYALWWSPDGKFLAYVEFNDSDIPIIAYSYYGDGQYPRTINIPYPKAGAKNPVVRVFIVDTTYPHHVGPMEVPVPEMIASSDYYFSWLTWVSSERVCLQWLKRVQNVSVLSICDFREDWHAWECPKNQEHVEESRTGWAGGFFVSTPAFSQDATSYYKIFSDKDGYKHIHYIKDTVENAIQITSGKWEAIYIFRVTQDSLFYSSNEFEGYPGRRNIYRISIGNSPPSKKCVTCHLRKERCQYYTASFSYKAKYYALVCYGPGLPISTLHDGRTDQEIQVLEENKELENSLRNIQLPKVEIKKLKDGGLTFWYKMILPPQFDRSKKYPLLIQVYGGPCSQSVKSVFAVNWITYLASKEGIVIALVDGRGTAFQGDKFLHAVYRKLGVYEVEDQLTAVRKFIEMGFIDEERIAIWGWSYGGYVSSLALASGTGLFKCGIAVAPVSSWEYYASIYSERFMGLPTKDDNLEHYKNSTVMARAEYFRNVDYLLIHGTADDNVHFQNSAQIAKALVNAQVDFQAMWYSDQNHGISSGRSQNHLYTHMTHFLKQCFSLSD
Description: as §2

[4] = molecular target: T6, human FAP protein (Acro, FAP-H5244) (human, UniProt Q12884 26-760); assay: SPR (Biacore 8K), antibody captured by anti-human IgG Fc, human FAP analyte
T6 construct: Bought protein
Description: (§3) The affinities of the anti-FAP/CD40 bispecific antibodies for their antigens, the human FAP protein (Acro, FAP-H5244) and the human CD40 protein (Acro, CD0-H5228), were measured by SPR (GE Healthcare; Biacore 8K). A CM5 sensor chip was used, and HBS-EP+buffer solution (10 mM HEPES, 150 mM NaCl, 3 mM EDTA, 0.05% surfactant P20) was used as the mobile phase. An anti-human IgG (Fc) antibody was immobilized by amino coupling. The test antibodies were separately diluted in HBS-EP+buffer solution as ligands and captured by the anti-human IgG (Fc) antibody on chip channels. Antigenic proteins of different species were used as analytes.

h-CD40-His = molecular target: T7, h-CD40-His (human, UniProt P25942 21-193); assay: SPR (Biacore 8K), antibody captured by anti-human IgG Fc, human CD40 analyte
T7 construct: range 21-193; Bought His-tagged recombinant protein; also called human CD40 protein (Acro, CD0-H5228); human CD40
T7 sequence (P25942 21-193 limits assumed): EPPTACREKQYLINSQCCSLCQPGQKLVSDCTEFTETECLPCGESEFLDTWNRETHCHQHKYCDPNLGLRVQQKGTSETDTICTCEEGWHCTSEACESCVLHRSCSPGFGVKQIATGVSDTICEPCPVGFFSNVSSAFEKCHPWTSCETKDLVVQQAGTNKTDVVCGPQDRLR
Description: as §3

[5] = molecular target: T4, human CD40 on cells (Raji cells; …); assay: cell-based or functional assay
[6] = molecular target: T8, human CD40 with C-terminal Flag tag on HEK293 cells (human, UniProt P25942 21-277); assay: FACS, HEK293 cells transiently expressing human CD40
T8 construct: whole, on cells; also called HEK293 cells highly expressing CD40; cell strain highly expressing human CD40
T8 sequence (P25942 other isoform, or with tags, fused parts or gaps): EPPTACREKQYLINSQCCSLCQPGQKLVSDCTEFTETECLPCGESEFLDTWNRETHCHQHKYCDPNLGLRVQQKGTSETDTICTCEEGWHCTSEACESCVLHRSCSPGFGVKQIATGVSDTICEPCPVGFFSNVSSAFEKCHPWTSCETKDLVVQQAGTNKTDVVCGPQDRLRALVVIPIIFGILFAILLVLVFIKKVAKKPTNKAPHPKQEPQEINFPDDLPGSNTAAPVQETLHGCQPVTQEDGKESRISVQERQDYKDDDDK
Description: The ability of the humanized antibodies to bind to cells highly expressing the human antigen protein CD40 was measured by FACS. HEK293 cells were transiently transfected with CD40 plasmids (CD40 cDNA ORF Clone, Human, C-[…] (Flag®) Tag; Sino Biological; HG10774-CF), yielding HEK293 cells highly expressing CD40. The resulting cells were resuspended in the flow cytometry staining buffer ([…]), and the test antibodies that had been serially diluted to different concentrations were added. After 1 h of incubation on ice, the cells were washed with PBS and centrifuged at 400 g for 5 min. A goat anti-human Fc antibody labeled with the fluorescent group Alexa Fluor 647 was added as a secondary antibody, and the cells were stained in an ice bath for 1 h. After two washes with PBS, the fluorescent signals on the cell surface were detected by FACS. The humanized antibodies of the present disclosure all have relatively high affinities for the cell strain highly expressing CD40.

Binder | EC50 [1] [nM] | Emax (MFI) [1] [MFI] | EC50 (human FAP on CHO cells) [nM] | Emax (MFI) (human FAP on CHO cells) | EC50 [2] [nM] | Emax (MFI) [2] [MFI] | EC50 [3] [nM] | Emax (MFI) [3] [MFI] | EC50 (mouse FAP on CHOK1 cells) [nM] | Emax (MFI) (mouse FAP on CHOK1 cells) | Kd [4] [nM] | koff [4] [s⁻¹] | kon [4] [M⁻¹ s⁻¹] | Kd (h-CD40-His) [nM] | koff (h-CD40-His) [s⁻¹] | kon (h-CD40-His) [M⁻¹ s⁻¹] | FcγRIIb-mediated activation of HEK-Blue CD40L cells, EC50 [5] [nM] | FcγRIIb-mediated activation of HEK-Blue CD40L cells, Emax (relative fluorescence intensity) [5] | EC50 [6] [nM] | Emax (MFI) [6] [MFI]
B1 | 2.76 | 6610 | 2.72 | 74000 | 5.65 | 45000 | 2.4 | 7570 | 4.32 | 19500 | – | – | – | – | – | – | – | – | – | –
B2 | 3.24 | 6540 | 2.57 | 64900 | 2.26 | 43200 | 0.79 | 4640 | 4.43 | 19000 | 0.294 | 5.14e-05 | 175000 | 29 | 0.002 | 69000 | – | – | – | –
B3 | – | – | – | – | – | – | – | – | – | – | – | – | – | – | – | – | 0.006 | 12.8 relative fluorescence intensity | 1.25 | 12800
B4 | – | – | – | – | – | – | – | – | – | – | – | – | – | – | – | – | 0.011 | 19.1 relative fluorescence intensity | 1.74 | 16900
B5 | – | – | – | – | – | – | – | – | – | – | – | – | – | – | – | – | 0.021 | 18.4 relative fluorescence intensity | 1.11 | 7300
